Results from patent publication US7998940B2, “Aptamers to von Willebrand factor and their use as thrombotic disease therapeutics” (Archemix Corp., priority 2004, dated 2011).
Where two headings read alike, the source gives them in different places. Oligonucleotides are written 5' to 3', each unit as a sugar letter and its base; * is a phosphorothioate linkage, no mark a phosphodiester; rarer units and linkages stand in square brackets, end groups in braces. Plain capitals give the bases only. [invdT] = inverted (3'-3') thymidine; d = 2'-deoxy (DNA); m = 2'-O-methyl; r = 2'-OH (RNA); f = 2'-fluoro

Key:
Assay type in all cases: cell-based
[1] = tested on: botrocetin induced platelet aggregation; assay: Inhibition of botrocetin induced platelet aggregation (BIPA) in human PRP; settings: for IC90: human platelet rich plasma; for ≦200 nM aptamer gives >90% blocking in BIPA at 6 minutes: botrocetin induced platelet aggregation
Procedure, shortened: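 Fresh human platelet-rich plasma, prewarmed at 37 degrees C, was preincubated one minute with aptamer (zero, 1 nM to 1000 nM) before botrocetin at a per-donor titrated aggregating concentration. Aggregation was followed as light transmittance; the value is the concentration blocking aggregation by 90% or greater after 6 minutes.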

[2] = tested on: full length human vWF binding to lyophilized platelets; assay: Full length human von Willebrand Factor platelet binding assay (FACS); settings: for Inhibition of full length hVWF binding in FACS assay, IC50 range: both bounds in nM
Procedure, shortened: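 Aptamer titrations (0.1–1000 nM) pre-incubated with 5 nM full-length human vWF, then added to lyophilized platelets plus botrocetin for 15 min at 37 °C in PBS/0.5% BSA. Bound vWF detected by anti-vWF then FITC secondary antibody via flow cytometry MFI; % inhibition versus no-aptamer binding fitted for IC50.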

[3] = tested on: rabbit vWF domain A1 binding to lyophilized platelets; assay: Rabbit von Willebrand Factor domain A1 platelet binding assay (FACS)
Chain of rabbit vWF domain A1 binding to lyophilized platelets (as listed by the source): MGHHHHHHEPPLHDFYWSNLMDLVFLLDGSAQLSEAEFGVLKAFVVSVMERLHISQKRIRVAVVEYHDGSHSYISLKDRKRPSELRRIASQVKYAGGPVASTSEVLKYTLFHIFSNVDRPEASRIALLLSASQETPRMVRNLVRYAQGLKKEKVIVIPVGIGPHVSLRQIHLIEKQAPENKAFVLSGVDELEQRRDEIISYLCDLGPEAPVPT
Procedure, shortened: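 Aptamers (0.1–1000 nM) preincubated with 4 nM His-tagged rabbit vWF A1 in PBS/0.5% BSA, then lyophilized human platelets plus botrocetin added, 15 min at 37 °C. Bound A1 detected by anti-His-biotin and PE secondary via flow cytometry (median fluorescence, background-subtracted); IC50 fitted from percent inhibition.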

[4] = read-out: FACS IC50 vs human full length vWF
[5] = read-out: FACS IC50 vs rabbit A1 domain
[6] = 5 nM full length human vWF, lyophilized platelets, botrocetin, read-out: Inhibition of full length hVWF binding in FACS assay, Average IC50
[7] = 5 nM full length human vWF, lyophilized platelets, botrocetin, units in the cell: lower bound pM, upper bound nM, read-out: Inhibition of full length hVWF binding in FACS assay, IC50 range
[8] = 4 nM rabbit A1 vWF, lyophilized platelets, botrocetin, read-out: Inhibition of rabbit VWF A1 domain binding in FACS assay, Average IC50
[9] = 5 nM full length human vWF, lyophilized platelets, botrocetin
[10] = 4 nM rabbit A1 vWF, lyophilized platelets, botrocetin, both bounds in nM
[11] = 4 nM rabbit A1 vWF, lyophilized platelets, botrocetin, both bounds in nM, read-out: Inhibition of rabbit VWF A1 domain binding in FACS assay, IC50 range

| Molecule | IC50 [2, 6] [pM] | IC50 [2, 7] [pM] | IC50 [3, 11] [nM] | further results |
| --- | --- | --- | --- | --- |
| PEG20K-NH2-mGmCmGmUdGdCdAmGmUmGmCmCmUmUmCmGmGmCdCmG-s-TmGdCdGdGTmGmCdCmUdCdCmGmUdCmAmCmGmC-3T [ARC1779] |  |  |  | IC90 [1]: ~100 nM |
| dGdGdCdGTdGdCdAdGTdGdCdCTTdCdGdGdCdCdGTdGdCdGdGTdGdCdCTdCdCdGTdCdAdCdGdCdC-3T (DNA GGCGTGCAGTGCCTTCGGCCGTGCGGTGCCTCCGTCACGCC; DNA, [invdT] at 3' end, backbone and methylation of C not given here) [ARC1172, ARC1115 with 3'-inverted dT] |  |  |  | IC50 [2, 4]: 2000 pM; IC50 [3, 5]: 2 nM; IC90 [1]: ~200 nM |
| mGmCmGmUdGdCdAmGmUmGmCmCmUmUmCmGmGmCdCmG-s-TmGdCdGdGTmGmCdCmUdCdCmGmUdCmAmCmGmC-3T (GCGUGCAGUGCCUUCGGCCGTGCGGTGCCUCCGUCACGC; sugars from the 5' end mmmmdddmmmmmmmmmmmdmdmddddmmdmddmmdmmmm, [invdT] at 3' end, backbone not given here) [ARC1368] |  |  |  | IC50 [2, 4]: 2000 pM; IC50 [3, 5]: 4 nM; IC90 [1]: ~200 nM; inhibition of botrocetin induced platelet aggregation ([1]; in words, human PRP): potency comparable to ReoPrO™ |
| AMX205.F7: rRdY aptamer clone (nucleic acid) rGrGrArGdCrGdCrAdCdTdCrArGdCdCrAdCrAdCrGrAdCrAdTdTrGrGdCrGrGrGdTdTrGdTrArAdTdTrAdCdCrAdCrGdCrAdTrGrGdCdTrGdTdTdTrGdTdTdTdCrGrAdCdCdTdCdTdCdTrGdCdTrArGdC | 818 | 321 to 1600 |  | IC50 [3, 8]: 4.7 nM; ≦200 nM aptamer gives >90% blocking in BIPA at 6 minutes [1]: yes |
| AMX237.G6: DNA SELEX 2 aptamer clone (nucleic acid, DNA, backbone and methylation of C not given here, DNA SELEX 2 aptamer clone) DNA: CTACCTACGATCTGACTAGCGTGCAGTGCCTATTCCAGGCCGTGCGGTGCCTCCGTCACGCTTACTCTCATGTAGTTCC | 1900 |  |  | ≦200 nM aptamer gives >90% blocking in BIPA at 6 minutes [1]: yes |
| AMX206.D8: rRdY aptamer clone (nucleic acid) rGrGrArGdCrGdCrAdCdTdCrArGdCdCrAdCrGrAdCrGrGdTrGrAdTrGrGrAdTdTrArGdCrGdCrGrGdTrGrGrAdTdCdTdTrArAdCrGdTrGdCrGrArGdTdTdTdCrGrAdCdCdTdCdTdCdTrGdCdTrArGdC |  |  |  | Inhibition of full length hVWF binding in FACS assay, IC50 range [2, 9]: no activity; Inhibition of rabbit VWF A1 domain binding in FACS assay, IC50 range [3, 10]: no activity |
| AMX205.H10: rRdY aptamer clone (nucleic acid) rGrGrArGdCrGdCrAdCdTdCrArGdCdCrAdCdTrGdTdTrGdCdCrGrAdCrGrGdTrGrAdTrGdTrAdTdTrArAdCrGdCrGrGrGdCrArAdCrGdTdTrGrGdTrGdTdTdTdCrGrAdCdCdTdCdTdCdTrGdCdTrArGdC |  |  |  | Inhibition of full length hVWF binding in FACS assay, IC50 range [2, 9]: no activity; Inhibition of rabbit VWF A1 domain binding in FACS assay, IC50 range [3, 10]: no activity |
| AMX237.A2: DNA SELEX 2 aptamer clone (nucleic acid, DNA, backbone and methylation of C not given here, DNA SELEX 2 aptamer clone) CTACCTACGATCTGACTAGCTCCAGTGTTTCATCCAATAACCGTGCGGTGCCTCCGTGAGCTTACTCTCATGTAGTTCC | 3500 | 815 to 7300 | 7 |  |
| AMX237.A11: DNA SELEX 2 aptamer clone (nucleic acid, DNA, backbone and methylation of C not given here, DNA SELEX 2 aptamer clone) CTACCTACGATCTGACTAGCTCCAGTGTTTTATCCAATAACCGTGCGGTGCCTCCGTGAGCTTACTCTCATGTAGTTCC | 2200 | 466 to 5600 | 4.7 |  |
| AMX237.B11: DNA SELEX 2 aptamer clone (nucleic acid, DNA, backbone and methylation of C not given here, DNA SELEX 2 aptamer clone) DNA: CTACCTACGATCTGACTAGCTCCAGTGTTTTATCTAATAACCGTGCGGTGCCTCCGTGAGCTTACTCTCATGTAGTTCC | 2500 | 151 to 4800 | 5.7 |  |
| AMX238.G5: DNA SELEX 2 aptamer clone (nucleic acid, DNA, backbone and methylation of C not given here, DNA SELEX 2 aptamer clone) DNA: CTACCTACGATCTGACTAGCTCCAGTGTTTTATTCAATAACCGTGCGGTGCCTCCGTGAGCTTACTCTCATGTAGTTCC | 1100 | 273 to 2600 | 5.5 |  |
| AMX238.D12: DNA SELEX 2 aptamer clone (nucleic acid, DNA, backbone and methylation of C not given here, DNA SELEX 2 aptamer clone) DNA: CTACCTACGATCTGACTAGCTCCAGTGTTTCATTCAATAACCGTGCGGTGCCTCCGTGAGCTTACTCTCATGTAGTTCC | 2000 | 684 to 3400 | 7.2 |  |
| AMX201.C8: rRfY aptamer clone (nucleic acid) rGrGrArGfCrGfCrAfCfUfCrArGfCfCrAfCfCfCfUfCrGfCrArArGfCrAfUfUfUfUrArArGrArAfUrGrAfCfUfUrGfUrGfCfCrGfCfUrGrGfCfUrGfUfUfUfUfCrGrAfCfCfUfCfUfCfUrGfCfUrArGfC | 528 | 24 to 1800 |  | IC50 [3, 8]: 0.682 nM; ≦200 nM aptamer gives >90% blocking in BIPA at 6 minutes [1]: yes |
| AMX203.G9: rRdY aptamer clone (nucleic acid) rGrGrArGdCrGdCrAdCdTdCrArGdCdCrAdCrGrGrGrGdTrGrGrGdTrArGrAdCrGrGdCrGrGrGdTrAdTrGdTrGrGdCdTrGrGdTrGdTdCrGrArArGrGrGdTdTdTdCrGrAdCdCdTdCdTdCdTrGdCdTrArGdC | 4700 |  |  | IC50 [3, 8]: 0.592 nM; IC50 ([3]; 4 nM rabbit A1 vWF, lyophilized platelets, botrocetin, units in the cell: lower bound pM, upper bound nM, read-out: Inhibition of rabbit VWF A1 domain binding in FACS assay, IC50 range): 0.152 to 1.6 nM; ≦200 nM aptamer gives >90% blocking in BIPA at 6 minutes [1]: yes |
